According to article PMC7544621 (Structure (London, England : 1993), 2020):

Target: T1, monomeric head domain of HA from H1 A/Solomon Islands/03/2006 (Influenza A virus A/Solomon …)
T1 chain: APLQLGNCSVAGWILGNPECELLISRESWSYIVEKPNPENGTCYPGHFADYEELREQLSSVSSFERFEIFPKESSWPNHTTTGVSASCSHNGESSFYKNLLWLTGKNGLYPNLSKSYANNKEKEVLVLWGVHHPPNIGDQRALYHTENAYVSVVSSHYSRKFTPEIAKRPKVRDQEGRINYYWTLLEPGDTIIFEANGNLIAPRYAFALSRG
Assay: BLI

B1: C05 IgG (anti-influenza human mAb C05) (antibody, V domains shown)
VH: QVQLQESGGGLVQPGESLRLSCVGSGSSFGESTLSYYAVSWVRQAPGKGLEWLSIINAGGGDIDYADSVEGRFTISRDNSKETLYLQMTNLRVEDTGVYYCAKHMSMQQVVSAGWERADLVGDAFDVWGQGTMVTVSS
VL: DIQLTQSPSSLSASVGDRVTLTCQASQDIRKFLNWYQQKPGKGPKLLIYDASNLQRGVPSRFSGGGSGTDFTLIISSLQPEDVGTYYCQQYDGLPFTFGGGTKVVIK
Kd: 88 nM
